Assay results from patent publication US20130123201A1, “MODULATION OF CYTOKINE-INDUCED CHRONIC INFLAMMATORY RESPONSES” (UNIVERSITY OF MANITOBA, priority 2010, published 2013).

Target: TNF-receptor-1 (TNF-R1) (human) (UniProt P19438)
Experiment: cell-based or functional assay

TNF-receptor-1 (TNF-R1) (human), sequence (P19438 30-455): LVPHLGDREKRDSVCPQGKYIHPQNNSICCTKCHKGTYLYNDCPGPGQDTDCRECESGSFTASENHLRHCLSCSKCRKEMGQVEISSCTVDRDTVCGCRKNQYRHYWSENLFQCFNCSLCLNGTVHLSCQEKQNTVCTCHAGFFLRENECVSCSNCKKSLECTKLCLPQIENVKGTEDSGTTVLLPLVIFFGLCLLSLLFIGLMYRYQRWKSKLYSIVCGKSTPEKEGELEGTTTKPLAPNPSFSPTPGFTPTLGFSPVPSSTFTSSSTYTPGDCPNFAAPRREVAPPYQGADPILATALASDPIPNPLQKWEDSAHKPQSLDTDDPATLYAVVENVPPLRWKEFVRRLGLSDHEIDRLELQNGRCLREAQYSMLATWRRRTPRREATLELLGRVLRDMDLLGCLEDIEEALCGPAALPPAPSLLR

- Relative fold change in phosphorylation of the TNF-R1 S274 array peptide (kinome profiling, THP-1 cells, 20 ng/mL IL-32, 15 min): 4.7 fold
Substance: Recombinant human cytokine IL-32γ (from UniProt P24001 31-234) (ligand)
